In paper PMC6827488 (ACS infectious diseases, 2019):

Target: maltose-binding protein (MBP)-tagged mVP35 IID (Marburg virus, UniProt P35259)
Assay: pull-down

Chain of maltose-binding protein (MBP)-tagged mVP35 IID (P35259 200-329): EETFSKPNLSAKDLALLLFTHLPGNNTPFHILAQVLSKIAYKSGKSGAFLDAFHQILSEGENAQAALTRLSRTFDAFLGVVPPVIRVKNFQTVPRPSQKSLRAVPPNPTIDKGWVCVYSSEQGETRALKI

B1: synthetic antigen-binding fragment sFab H3 (Fab, V domains shown)
VH: EVQLVESGGGLVQPGGSLRLSCAASGFNISYYYIHWVRQAPGKGLEWVASIYPYYGYTSYADSVKGRFTISADTSKNTAYLQMNSLRAEDTAVYYCARGSSWYGAHAFDYWGQGTLVTVSS
VL: DIQMTQSPSSLSASVGDRVTITCRASQSVSSAVAWYQQKPGKAPKLLIYSASSLYSGVPSRFSGSRSGTDFTLTISSLQPEDFATYYCQQGYYYAYSLITFGQGTKVEIK
- binding result: binds
